The molecules below were run on O=C1CCc2ccccc21 (assay: purified protein). Details: 20 mM propargylamine, 0.2 mM NADPH, 1% DMSO, 100 mM Tris-HCl pH 9.0.
Format: biochemical, Aspergillus calidoustus

| Molecule | Km [µM] | kcat [s⁻¹] | kcat/Km [M⁻¹ s⁻¹] |
| --- | --- | --- | --- |
| AcRedAm (Aspergillus calidoustus) (protein, dimer in homology model) MSTITLFGLGAMGKALAAKYIEKGYTTTIWNRTPSKAAPLVEKGAKLANTVGEGLASADLIILCLLDNASVRQTLDQATAALNGKTVINLTNGTPSQARETSEWVISHGAQYIHGGIMAVPDMIGSPHAVLLYSGESAETFSRVEAHLSHLGTSKFLGTDPGSASLHDLALLSGMYGLFSGFFHATALVKSQPGTTATGFVQLLTPWLSAMTHYLGALAKQIDEGDYATQGSNMAMQVTGVQNIVRASEEAGVTADLIMPILGRMTRAAEAGYADVDVSAVIEFMKE | 16 ± 4 | 0.017 ± 0.001 | 1060 ± 41 |

The molecules below were run on T1, O=C1CCc2ccccc21 (assay: purified protein). Details: 20 mM propargylamine, 0.2 mM NADPH, 1% DMSO, 100 mM Tris-HCl pH 9.0.
T1 construct: dimer in homology model
Format: biochemical, Aspergillus calidoustus

| Molecule | Km [µM] | kcat [s⁻¹] | kcat/Km [M⁻¹ s⁻¹] |
| --- | --- | --- | --- |
| AcRedAm (Aspergillus calidoustus; Q237A) | 9 ± 1 | 0.007 ± 0.001 | 778 ± 21 |
| AcRedAm (Aspergillus calidoustus; Q237G) | 4 ± 1 | 0.002 ± 0.001 | 500 ± 30 |
| AcRedAm (Aspergillus calidoustus; W207C) | 18 ± 2 | 0.022 ± 0.001 | 1220 ± 44 |
| AcRedAm (Aspergillus calidoustus; W207S/Y214C) | 21 ± 4 | 0.026 ± 0.002 | 1240 ± 26 |
| AcRedAm (Aspergillus calidoustus; Y214M) | 12 ± 4 | 0.014 ± 0.002 | 1170 ± 21 |
